Measured values taken from patent publication US10766952B2, “Methods for reducing migraine frequency in a subject in need thereof” (Beth Israel Deaconess Medical Center, Inc., priority 2017, dated 2020).
Ends that are not written are not given here.

T1: human α-CGRP (Homo sapiens, UniProt P06881)
T1 construct: 1-37 (WT); purchased; host or cells: synthetic peptide
T1 sequence (P06881 83-119 limits assumed): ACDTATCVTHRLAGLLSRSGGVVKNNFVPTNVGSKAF

T2: rat α-CGRP (Rattus norvegicus, UniProt P01256)
T2 construct: rat α (1-37); host or cells: synthetic peptide
T2 sequence (P01256 83-119 limits assumed): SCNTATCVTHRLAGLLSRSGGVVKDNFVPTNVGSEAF


Assays:
[1] = target: T3, binding of G1 Fab to human α-CGRP on the chip (Homo sapiens); test: Epitope mapping of antibody G1 by peptide competition using Biacore; details: 10 μM peptide in 50 nM G1 Fab; FIG. 6
T3 construct: made in house; host or cells: E. coli (Fab); chip peptide purchased
T3 sequence (P01859 with tags, fused parts or gaps, other chains not shown): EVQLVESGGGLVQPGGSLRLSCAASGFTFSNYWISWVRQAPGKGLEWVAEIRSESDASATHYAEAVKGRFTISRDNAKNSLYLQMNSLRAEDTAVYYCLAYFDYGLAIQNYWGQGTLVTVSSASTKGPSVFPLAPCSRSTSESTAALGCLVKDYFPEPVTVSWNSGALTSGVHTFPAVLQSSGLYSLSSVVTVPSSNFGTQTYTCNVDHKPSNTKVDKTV
Description: N-biotinylated human α-CGRP was captured on SA sensor chip. […] Y axis represents percentage of binding blocked by the presence of the competing peptide compared with the binding in the absence of the competing peptide.
Human α-CGRP was purchased as an N-biotinylated version to enable its high-affinity capture via SA sensor chips. […] All these peptides are amidated at the C-terminus.

human α-CGRP = target: T1, human α-CGRP; test: Biacore affinity of antibody G1 Fab and variants to human α-CGRP; type: binding; details: 37° C., Fab, screening mode unless underlined
Outline: (§1)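 Fab fragments flowed over N-biotinylated CGRP captured on SA chip in HBS-EP pH 7.4; titration series fit globally to 1:1 Langmuir model, KD = koff/kon. For very slow off-rates, kon from 550 nM–1 nM series with 30 s dissociation, koff from 2-hour dissociation.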

rat α-CGRP = target: T2, rat α-CGRP; test: Biacore affinity of antibody G1 Fab and variants to rat α-CGRP; type: binding; details: 37° C., Fab, screening mode unless underlined
Outline: as §1

Row | percentage of binding of G1 Fab to human α-CGRP blocked by competing peptide [1] | α-human koff (human α-CGRP) [s⁻¹] | α-rat koff (rat α-CGRP) [s⁻¹] | Molecule
1 | did not compete | – | – | 1-13: human α-CGRP fragment, SEQ ID NO: 40, ACDTATCVTHRLA (ACDTATCVTHRLA-OH; cysteine pairing not given here)
2 | did not compete | – | – | 1-19: human α-CGRP fragment, SEQ ID NO: 39, ACDTATCVTHRLAGLLSRS (ACDTATCVTHRLAGLLSRS-OH; cysteine pairing not given here)
3 | about 40% | – | – | 1-36: human α-CGRP fragment, SEQ ID NO: 38, ACDTATCVTHRLAGLLSRSGGVVKNNFVPTNVGSKA (ACDTATCVTHRLAGLLSRSGGVVKNNFVPTNVGSKA-OH; cysteine pairing not given here)
4 | did not compete | – | – | 19-36: human α-CGRP fragment, SEQ ID NO: 37, SGGVVKNNFVPTNVGSKA (SGGVVKNNFVPTNVGSKA-OH)
5 | did not compete | – | – | adrenomedullin: SEQ ID NO: 47, YRQSMNNFQGLRSFGCRFGTCTVQKLAHQIYQFTDKDKDNVAPRSKISPQGY
6 | – | 0.000239 | 0.00479 | M36: G1 variant: L1 R28N,T30R; HC-FW3 L99T,A100V (antibody, V domains shown) VH: EVQLVESGGGLVQPGGSLRLSCAASGFTFSNYWISWVRQAPGKGLEWVAEIRSESDASATHYAEAVKGRFTISRDNAKNSLYLQMNSLRAEDTAVYYCTVYFDYGLAIQNYWGQGTLVTVSS VL: EIVLTQSPATLSLSPGERATLSCKASKNVRTYVSWYQQKPGQAPRLLIYGASNRYLGIPARFSGSGSGTDFTLTISSLEPEDFAVYYCSQSYNYPYTFGQGTKLEIK
7 | – | 0.000263 | 0.00453 | M43: G1 variant: L1 R28N; L2 G50A,L56T; H2 E54K,A57N,S58C; HC-FW3 L99T,A100V (antibody, V domains shown) VH: EVQLVESGGGLVQPGGSLRLSCAASGFTFSNYWISWVRQAPGKGLEWVAEIRSKSDNCATHYAEAVKGRFTISRDNAKNSLYLQMNSLRAEDTAVYYCTVYFDYGLAIQNYWGQGTLVTVSS VL: EIVLTQSPATLSLSPGERATLSCKASKNVTTYVSWYQQKPGQAPRLLIYAASNRYTGIPARFSGSGSGTDFTLTISSLEPEDFAVYYCSQSYNYPYTFGQGTKLEIK
8 | – | 0.000218 | 0.00511 | M38: G1 variant: L1 R28N,T30W; HC-FW3 L99T,A100V (antibody, V domains shown) VH: EVQLVESGGGLVQPGGSLRLSCAASGFTFSNYWISWVRQAPGKGLEWVAEIRSESDASATHYAEAVKGRFTISRDNAKNSLYLQMNSLRAEDTAVYYCTVYFDYGLAIQNYWGQGTLVTVSS VL: EIVLTQSPATLSLSPGERATLSCKASKNVWTYVSWYQQKPGQAPRLLIYGASNRYLGIPARFSGSGSGTDFTLTISSLEPEDFAVYYCSQSYNYPYTFGQGTKLEIK
9 | – | 0.000226 | 0.00145 | M37: G1 variant: L1 R28N,T30S; H2 A57G; HC-FW3 L99T,A100V (antibody, V domains shown) VH: EVQLVESGGGLVQPGGSLRLSCAASGFTFSNYWISWVRQAPGKGLEWVAEIRSESDGSATHYAEAVKGRFTISRDNAKNSLYLQMNSLRAEDTAVYYCTVYFDYGLAIQNYWGQGTLVTVSS VL: EIVLTQSPATLSLSPGERATLSCKASKNVSTYVSWYQQKPGQAPRLLIYGASNRYLGIPARFSGSGSGTDFTLTISSLEPEDFAVYYCSQSYNYPYTFGQGTKLEIK
10 | – | 0.000417 | 0.00752 | M42: G1 variant: L1 R28N; L2 G50A,L56T; H2 E54K,A57N,H61F; HC-FW3 L99T,A100V (antibody, V domains shown) VH: EVQLVESGGGLVQPGGSLRLSCAASGFTFSNYWISWVRQAPGKGLEWVAEIRSKSDNSATFYAEAVKGRFTISRDNAKNSLYLQMNSLRAEDTAVYYCTVYFDYGLAIQNYWGQGTLVTVSS VL: EIVLTQSPATLSLSPGERATLSCKASKNVTTYVSWYQQKPGQAPRLLIYAASNRYTGIPARFSGSGSGTDFTLTISSLEPEDFAVYYCSQSYNYPYTFGQGTKLEIK
11 | – | 0.000211 | 0.00558 | M45: G1 variant: L1 R28N; L2 G50A,L56T; H2 E54K,A57N,S58E,E64D; HC-FW3 L99T,A100V (antibody, V domains shown) VH: EVQLVESGGGLVQPGGSLRLSCAASGFTFSNYWISWVRQAPGKGLEWVAEIRSKSDNEATHYADAVKGRFTISRDNAKNSLYLQMNSLRAEDTAVYYCTVYFDYGLAIQNYWGQGTLVTVSS VL: EIVLTQSPATLSLSPGERATLSCKASKNVTTYVSWYQQKPGQAPRLLIYAASNRYTGIPARFSGSGSGTDFTLTISSLEPEDFAVYYCSQSYNYPYTFGQGTKLEIK
12 | – | 0.00021 | 0.00453 | M41: G1 variant: L1 R28N; L2 G50A,L56T; H2 E54K,A57N,E64D; HC-FW3 L99T,A100V (antibody, V domains shown) VH: EVQLVESGGGLVQPGGSLRLSCAASGFTFSNYWISWVRQAPGKGLEWVAEIRSKSDNSATHYADAVKGRFTISRDNAKNSLYLQMNSLRAEDTAVYYCTVYFDYGLAIQNYWGQGTLVTVSS VL: EIVLTQSPATLSLSPGERATLSCKASKNVTTYVSWYQQKPGQAPRLLIYAASNRYTGIPARFSGSGSGTDFTLTISSLEPEDFAVYYCSQSYNYPYTFGQGTKLEIK
13 | – | 0.00128 | 0.36 | M40: G1 variant: L1 R28N; L2 G50A,L56T; H2 E54K,A57L; HC-FW3 L99T,A100V (antibody, V domains shown) VH: EVQLVESGGGLVQPGGSLRLSCAASGFTFSNYWISWVRQAPGKGLEWVAEIRSKSDLSATHYAEAVKGRFTISRDNAKNSLYLQMNSLRAEDTAVYYCTVYFDYGLAIQNYWGQGTLVTVSS VL: EIVLTQSPATLSLSPGERATLSCKASKNVTTYVSWYQQKPGQAPRLLIYAASNRYTGIPARFSGSGSGTDFTLTISSLEPEDFAVYYCSQSYNYPYTFGQGTKLEIK
14 | – | 0.00021 | 0.00613 | M44: G1 variant: L1 R28N; L2 G50A,L56T; H2 E54K,A57N,S58E; HC-FW3 L99T,A100V (antibody, V domains shown) VH: EVQLVESGGGLVQPGGSLRLSCAASGFTFSNYWISWVRQAPGKGLEWVAEIRSKSDNEATHYAEAVKGRFTISRDNAKNSLYLQMNSLRAEDTAVYYCTVYFDYGLAIQNYWGQGTLVTVSS VL: EIVLTQSPATLSLSPGERATLSCKASKNVTTYVSWYQQKPGQAPRLLIYAASNRYTGIPARFSGSGSGTDFTLTISSLEPEDFAVYYCSQSYNYPYTFGQGTKLEIK
15 | – | 0.000425 | 0.00995 | M39: G1 variant: L1 R28N; L2 G50A,L56T; H2 A57N,S58Y; HC-FW3 L99T,A100V (antibody, V domains shown) VH: EVQLVESGGGLVQPGGSLRLSCAASGFTFSNYWISWVRQAPGKGLEWVAEIRSESDNYATHYAEAVKGRFTISRDNAKNSLYLQMNSLRAEDTAVYYCTVYFDYGLAIQNYWGQGTLVTVSS VL: EIVLTQSPATLSLSPGERATLSCKASKNVTTYVSWYQQKPGQAPRLLIYAASNRYTGIPARFSGSGSGTDFTLTISSLEPEDFAVYYCSQSYNYPYTFGQGTKLEIK
